# Results taken from patent publication US5466669A, “Immunostimulatory agent” (Morinaga Milk Industry Co., Ltd., priority 1993, dated 1995).
# What was measured:
# Format in all cases: cell-based
# [1] = system: human polymorphonuclear neutrophils; experiment: Test 3: leukotriene release from human polymorphonuclear neutrophils induced by calcium ionophore A23187; settings: for Leukotriene released (ng) B4 / Leukotriene released (ng) C4 / Leukotriene released (ng) 20-COOH / Leukotriene released (ng) 20-OH: A23187 5 μM; for Leukotriene released (ng) B4: saline control 12; for Leukotriene released (ng) C4: saline control 18; for Leukotriene released (ng) 20-COOH: saline control 31; for Leukotriene released (ng) 20-OH: saline control 55; for Leukotriene released (ng) (Total B4): sum of B4, 20-OH and 20-COOH, saline control 98; for activity to promote the release of leukotriene B4 from polymorphonuclear neutrophils (in words): 1 to 100 ppm
# Description: This test was performed to study the activity of the peptide of the present invention to promote the release of leukotriene B4 from human polymorphonuclear neutrophils induced by the calcium ionophore A23187.
# Human polymorphonuclear neutrophils were prepared by fractionation of leukocytes from heparinized blood of healthy donors on a Ficoll-metrizoategradient followed by dextran sedimentation. The cells were centrifuged at 300×g, and washed three times with phosphate-buffered saline, after which less than 2% of the platelets remained. Erythrocytes were removed by exposing the cells to hypotonic conditions. The purity of the polymorphonuclear neutrophil fraction used was greater than 97% as confirmed by light microscopy.
# For analysis of leukotriene release, human neutrophils suspended in phosphate-buffered saline at approximately 1×10^7 cells per ml were used as the target cells. The cells were incubated for 30 min in the presence of test substance [(purified peptide obtained by the method as in Example 1, or human lactoferrin (Sigma Chemical Co.), or bovine lactoferrin (Morinaga Milk Industry Co.)]. Leukotriene release from the neutrophils was then induced by the addition of calcium ionophore A23187 (Sigma chemical Co.) at a final concentration of 5 μM. After 30 min, the supernatants of the stimulated cells were deproteinized by addition of 2 ml of methanol-acetonitrile (1:1) overlaid with nitrogen and frozen for 12 h at -70° C. After centrifugation at 1000×g for 15 min the supernatant was evaporated to dryness in a freeze dryer, suspended in 0.5 ml of methanol-water (30:70), overlaid with nitrogen, and stored overnight at -70° C. The samples were centrifuged at 1000×g and the supernatant was assayed for the presence of leukotrienes by high pressure liquid chromatography using a reverse-phase column of Nucleosil (C18; 5 μm particles) at a column temperature of 40° C. The solvent system was a mixture of phosphate buffer (17 mM K2 HPO4 containing 0.05% EDTA), acetonitrile, and methanol (50:30:20) adjusted to pH 5.0 with phosphoric acid. The absorbance at 280 nm of the column effluent was monitored and recorded. The concentration of each eluted leukotriene was determined from the peak area by means of a computing integrator. The leukotrienes were identified from their retention times with reference to known standards. The minimum detectable quantity was 1 ng in each instance.
# [2] = system: rat peritoneal mast cells; experiment: Test 1: histamine release from rat peritoneal mast cells induced by calcium ionophore A23187; settings: for Histamine release (Relative %): A23187 5 μM, control (saline) = 100; for activity to promote the release of histamine from mast cells induced by A23187 (in words): 1 to 100 ppm
# Description: This test was performed to study the activity of the peptide of the present invention to promote the release of histamine from rat peritoneal mast cells induced by the calcium ionophore A23187.
# Peritoneal cells were collected from Wistar rats after intraperitoneal injection of phosphate-buffered saline (consisting of 120 mM NaCl, 10 mM Na2 PO4, 3 mM KH2 PO4, pH 7.4). Their abdoments were massaged and the buffer containing the cells was recovered. The cells were centrifuged at 300×g for 15 min and washed twice with phosphate-buffered saline. The cells from several rats were pooled for use in the experiments.
# Rat peritoneal cells containing about 1×10^5 mast cells per ml were used as the target cells. A 500 μl volume of the cell suspension was incubated with 100 μl volume of the test substance [purified peptide obtained by the method as in Example 1, or human lactoferrin (Sigma Chemical Co.), or bovine lactoferrin (Morinaga Milk industry Co.)] at 37° C. for 3O min. Thereafter, histamine release from the mast cells was induced by the addition of calcium ionophore A23187 (Sigma Chemical Co.) at a final concentration of 5 μM. After 10 min of incubation the cells were centrifuged at 300×g for 15 min and the supernatant was removed and deproteinized by the addition of 2 ml of HClO4 (2%). The deproteinized sample was then centrifuged at 2000×g for 20 min and the histamine content in the supernatant was determined by the fluorophotometric analyser technique (AutoAnalyzer: Technikon). Cells in the presence of phosphate-buffered saline served as control.
# [3] = system: rat peritoneal mast cells; experiment: Test 2: histamine release from rat peritoneal mast cells induced by α-toxin-producing Staphylococcus aureus cells; settings: for Histamine release (Relative %): S. aureus 121 about 1.0×10^8 cells per ml, control (saline) = 100; for activity to promote the release of histamine from mast cells induced by α-toxin-producing Staphylococcus aureus cells (in words): 1 to 100 ppm
# Description: This test was performed to study the activity of the peptide of the present invention to promote the release of histamine from rat peritoneal mast cells induced by α-toxin-producing Staphylococcus aureus cells.
# Staphylococcus aureus 121, an α-toxin-producing strain, was cultured overnight in Brain Heart Infusion broth at 37° C. The bacterial cells were collected by centrifugation at 4000×g for 20 min, washed with phosphate-buffered saline, and suspended in the same buffer for use in the experiment. Rat peritoneal cells were prepared as in Test 1.
# The same method as in Test 1 was used, except histamine release from the mast cells was induced by the addition of α-toxin-producing Staphylococcus aureus cells at a final concentration of about 1.0×10^8 cells per ml.
Molecule,Leukotriene released (ng) B4 ([1]; 1 ppm test substance) [ng],Leukotriene released (ng) C4 ([1]; 1 ppm test substance) [ng],Leukotriene released (ng) 20-COOH ([1]; 1 ppm test substance) [ng],Leukotriene released (ng) 20-OH ([1]; 1 ppm test substance) [ng],Leukotriene released (ng) (Total B4) ([1]; 1 ppm test substance),activity to promote the release of leukotriene B4 from polymorphonuclear neutrophils (in words) [1],Leukotriene released (ng) B4 ([1]; 10 ppm test substance) [ng],Leukotriene released (ng) C4 ([1]; 10 ppm test substance) [ng],Leukotriene released (ng) 20-COOH ([1]; 10 ppm test substance) [ng],Leukotriene released (ng) 20-OH ([1]; 10 ppm test substance) [ng],Leukotriene released (ng) (Total B4) ([1]; 10 ppm test substance),Leukotriene released (ng) B4 ([1]; 100 ppm test substance) [ng],Leukotriene released (ng) C4 ([1]; 100 ppm test substance) [ng],Leukotriene released (ng) 20-COOH ([1]; 100 ppm test substance) [ng],Leukotriene released (ng) 20-OH ([1]; 100 ppm test substance) [ng],Leukotriene released (ng) (Total B4) ([1]; 100 ppm test substance),Histamine release (Relative %) ([2]; 1 ppm test substance),activity to promote the release of histamine from mast cells induced by A23187 (in words) [2],Histamine release (Relative %) ([2]; 10 ppm test substance),Histamine release (Relative %) ([2]; 100 ppm test substance),other results
"lactoferrin, bovine: bovine lactoferrin (Morinaga Milk industry Co.) (protein, UniProt P24627 20-708, looked up) Lactotransferrin: APRKNVRWCTISQPEWFKCRRWQWRMKKLGAPSITCVRRAFALECIRAIAEKKADAVTLDGGMVFEAGRDPYKLRPVAAEIYGTKESPQTHYYAVAVVKKGSNFQLDQLQGRKSCHTGLGRSAGWIIPMGILRPYLSWTESLEPLQGAVAKFFSASCVPCIDRQAYPNLCQLCKGEGENQCACSSREPYFGYSGAFKCLQDGAGDVAFVKETTVFENLPEKADRDQYELLCLNNSRAPVDAFKECHLAQVPSHAVVARSVDGKEDLIWKLLSKAQEKFGKNKSRSFQLFGSPPGQRDLLFKDSALGFLRIPSKVDSALYLGSRYLTTLKNLRETAEEVKARYTRVVWCAVGPEEQKKCQQWSQQSGQNVTCATASTTDDCIVLVLKGEADALNLDGGYIYTAGKCGLVPVLAENRKSSKHSSLDCVLRPTEGYLAVAVVKKANEGLTWNSLKDKKSCHTAVDRTAGWNIPMGLIVNQTGSCAFDEFFSQSCAPGADPKSRLCALCAGDDQGLDKCVPNSKEKYYGYTGAFRCLAEDVGDVAFVKNDTVWENTNGESTADWAKNLNREDFRLLCLDGTRKPVTEAQSCHLAVAPNHAVVSRSDRAAHVKQVLLHQQALFGKNGKNCPDKFCLFKSETKNLLFNDNTECLAKLGGRPTYEEYLGTEYVTAIANLKKCSTSPLLEACAFLTR",9,17,41,50,100,"little, if any, such activity",11,15,36,60,107,11,15,35,59,105,105 ± 25,"little, if any, such activity",110 ± 20,125 ± 25,"Histamine release (Relative %) ([3]; 1 ppm test substance): 150 ± 10 Relative %; activity to promote the release of histamine from mast cells induced by α-toxin-producing Staphylococcus aureus cells (in words) [3]: little, if any, such activity; Histamine release (Relative %) ([3]; 10 ppm test substance): 160 ± 10 Relative %; Histamine release (Relative %) ([3]; 100 ppm test substance): 110 ± 15 Relative %"
"lactoferrin, human: human lactoferrin (Sigma Chemical Co.) (protein, UniProt P02788 20-710, looked up) Lactotransferrin: GRRRSVQWCAVSQPEATKCFQWQRNMRKVRGPPVSCIKRDSPIQCIQAIAENRADAVTLDGGFIYEAGLAPYKLRPVAAEVYGTERQPRTHYYAVAVVKKGGSFQLNELQGLKSCHTGLRRTAGWNVPIGTLRPFLNWTGPPEPIEAAVARFFSASCVPGADKGQFPNLCRLCAGTGENKCAFSSQEPYFSYSGAFKCLRDGAGDVAFIRESTVFEDLSDEAERDEYELLCPDNTRKPVDKFKDCHLARVPSHAVVARSVNGKEDAIWNLLRQAQEKFGKDKSPKFQLFGSPSGQKDLLFKDSAIGFSRVPPRIDSGLYLGSGYFTAIQNLRKSEEEVAARRARVVWCAVGEQELRKCNQWSGLSEGSVTCSSASTTEDCIALVLKGEADAMSLDGGYVYTAGKCGLVPVLAENYKSQQSSDPDPNCVDRPVEGYLAVAVVRRSDTSLTWNSVKGKKSCHTAVDRTAGWNIPMGLLFNQTGSCKFDEYFSQSCAPGSDPRSNLCALCIGDEQGENKCVPNSNERYYGYTGAFRCLAENAGDVAFVKDVTVLQNTDGNNNEAWAKDLKLADFALLCLDGKRKPVTEARSCHLAMAPNHAVVSRMDKVERLKQVLLHQQAKFGRNGSDCPDKFCLFQSETKNLLFNDNTECLARLHGKTTYEKYLGPQYVAGITNLKKCSTSPLLEACEFLRK",11,12,41,80,131,"little, if any, such activity",10,13,26,50,86,10,17,26,42,76,115 ± 20,"little, if any, such activity",110 ± 10,100 ± 10,"Histamine release (Relative %) ([3]; 1 ppm test substance): 180 ± 5 Relative %; activity to promote the release of histamine from mast cells induced by α-toxin-producing Staphylococcus aureus cells (in words) [3]: little, if any, such activity; Histamine release (Relative %) ([3]; 10 ppm test substance): 115 ± 15 Relative %; Histamine release (Relative %) ([3]; 100 ppm test substance): 120 ± 20 Relative %"
